Reference: patent US20180245121A1
pKd: −log10 of the molar value.

Assays:
[1] = target: FKBP-GDH(155-454AA) (Acinetobacter calcoaceticus) (UniProt P62942); experiment: self-reconstitution of split GDH fragments without ligand; method not described (GDH activity assay implied)
[2] = target: FKBP-GDH(155-454AA) (Acinetobacter calcoaceticus) (UniProt P62942); experiment: cell-based or functional assay

Sequence of UniProt P62942 (P62942 2-108, tags or fused parts left off): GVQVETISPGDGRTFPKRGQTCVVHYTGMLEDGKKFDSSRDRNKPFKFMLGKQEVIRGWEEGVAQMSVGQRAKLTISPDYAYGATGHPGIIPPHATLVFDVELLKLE

Substance: GDH(1-153AA)-FRB (from UniProt P42345 2021-2113)
- pKd [1]: 7.00 to 7.30
- GDH activity; observed rates on rapamycin titration fitted to a quadratic equation [2]: 11 nM
